Where a chain is given by its changes, count along the chain named.
T1: recombinant HuCoV-NL63 N protein (100–377) (HuCoV-NL63, UniProt Q6Q1R8 100-377)
T1 sequence: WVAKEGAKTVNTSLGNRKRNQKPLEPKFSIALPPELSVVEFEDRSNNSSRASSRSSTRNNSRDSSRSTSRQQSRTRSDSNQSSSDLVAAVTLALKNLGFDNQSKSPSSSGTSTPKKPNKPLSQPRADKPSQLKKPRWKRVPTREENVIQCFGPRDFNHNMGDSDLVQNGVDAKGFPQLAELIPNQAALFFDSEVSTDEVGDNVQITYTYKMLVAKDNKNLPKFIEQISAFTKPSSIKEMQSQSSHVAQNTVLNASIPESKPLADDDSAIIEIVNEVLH

B1: mBG67 (antibody, V domains shown)
VH: EVQLVESGGGLVQPGGSLKLSCAASGFTFSNYGMSWVRQTPDKRLELVATINRNGGSTYYLDSVKVRFTISRDNAKSTLFLQLSSLKSDDTAMYYCARIYDFDEDYFDVWGAGTTVTVSS
VL: QIVLTQSPAIMSASLGERVTMTCTASSSVSSSYLHWYQQKPGSSPKLWIYSTSNLASGVPARFSGSGSGTSYSLTISSMEAEDAATYYCLQYHRSPWTFGGGTKLEIK
B2: mBG21 (antibody, V domains shown)
VH: QIQLVQSGPELKKPGETVKISCKASGYTFTDYSMHWVKQAPGKGSKWMGWINTETGEPTYADDFKGRFAFSLETSASTAYLQINNLKNEDTATYFCALRRWGQGTLVTVSS
VL: IVMTQTPKFLLVSAGDRVTITCKASQSVSNDVAWFQQKPGQSPKKLLIYFASNRYTGVPDRFTGSGYGTDFTFTITTVQAEDLAVYFCQQDYSSPWTFGGGTKLEIK
B3: mBG22 (antibody, V domains shown)
VH: B2 VH with S111A
VL: IVMTQTPKFLLVSAGDRVTITCKASQSVSNDVAWFQQKPGQSPKLLIYFASNRYTGVPDRFTGSGYGTDFTFTITTVQAEDLAVYFCQQDYSSPWTFGGGTKLEIK
B4: mBG17 (antibody, V domains shown)
VH: EVKLEESGGGLVQPGGSMKFSCVASGFTFSDYWMNWVRQSPDKGLEWVAEIRLKSNNYATHYAASVKGRFTISRDDSKSSVYLQMNNLRAEDSGIYYCTRSAMDYWGQGTSVTVSS
VL: DIVMSQSPSSLAVSVGEKITMSCKSSQSLLYTSDQKNYLAWFQQKPGQSPKLLIFWASTRDSGVPDRFTGSGSGTDFTLTISSVKAEDLAVYYCQQFYNYPRTFGGGTKLEIK

Tests used:
Experiment in all cases: ELISA
[1] = biological target: recombinant SARS-CoV N protein (133–422) (SARS-CoV, UniProt P59595 133-422)
[2] = biological target: recombinant HuCoV-NL63 N protein (100–377) (HuCoV-NL63, UniProt Q6Q1R8)
[3] = biological target: recombinant SARS-CoV N protein (133–422) (SARS-CoV, UniProt P59595)
[4] = biological target: T1, recombinant HuCoV-NL63 N protein …

recombinant SARS-CoV N protein (133–422) (SARS-CoV, UniProt P59595 133-422), sequence (P59595 133-422): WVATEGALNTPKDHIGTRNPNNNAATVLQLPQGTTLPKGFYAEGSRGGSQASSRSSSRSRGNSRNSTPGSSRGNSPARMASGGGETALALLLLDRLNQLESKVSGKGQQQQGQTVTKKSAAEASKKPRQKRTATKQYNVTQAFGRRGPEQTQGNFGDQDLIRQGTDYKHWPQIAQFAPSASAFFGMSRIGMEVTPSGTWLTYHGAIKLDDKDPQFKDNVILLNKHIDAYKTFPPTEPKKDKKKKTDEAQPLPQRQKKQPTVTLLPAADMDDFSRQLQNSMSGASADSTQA
recombinant SARS-CoV N protein (133–422) (SARS-CoV, UniProt P59595), sequence (P59595 133-422): as above

| Binder | corrected average ELISA signal [1] | corrected average ELISA signal [2] | corrected average ELISA signal [3] | corrected average ELISA signal [4] |
| --- | --- | --- | --- | --- |
| B1 | 0.39 | – | – | – |
| B2 | – | 0.47 | 1.49 | – |
| B3 | 0.76 | – | – | 0.51 |
| B4 | 1.39 | – | – | 0.54 |

Source: PMC7480041 (bioRxiv, 2020)
